Assay results: US20180243434A1 (INSERM INSTITUT NATIONAL DE LA SANT ET DE LA RECHERCHE M …, published 2018)

T1: N-terminal Flag-tagged nectin4 expressed in MDA-MB-231 cells (human, UniProt Q96NY8 32-510)
T1 sequence (looked up): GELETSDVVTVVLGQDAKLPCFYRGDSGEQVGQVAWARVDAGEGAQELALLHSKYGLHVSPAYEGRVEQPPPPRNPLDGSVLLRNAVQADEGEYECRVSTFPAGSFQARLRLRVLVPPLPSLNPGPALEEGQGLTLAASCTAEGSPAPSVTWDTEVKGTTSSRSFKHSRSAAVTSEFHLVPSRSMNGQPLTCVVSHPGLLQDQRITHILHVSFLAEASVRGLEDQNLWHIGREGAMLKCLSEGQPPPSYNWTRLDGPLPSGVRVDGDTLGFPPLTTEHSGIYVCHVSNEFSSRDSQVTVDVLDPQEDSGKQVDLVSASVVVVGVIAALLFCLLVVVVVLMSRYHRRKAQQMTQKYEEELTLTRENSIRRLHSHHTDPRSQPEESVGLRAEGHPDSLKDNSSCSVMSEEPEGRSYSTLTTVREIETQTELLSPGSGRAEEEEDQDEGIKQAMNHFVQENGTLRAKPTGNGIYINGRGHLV

T2: endogenous nectin-4 on SUM190 cells (human, UniProt Q96NY8 32-510)
T2 sequence (looked up): T1 sequence (looked up)

T3: nectin1V-Fc (comprising only the IgV domain) (UniProt Q15223 31-143, limits assumed)
T3 construct: domain: IgV domain; not shown: Fc part
T3 sequence (looked up): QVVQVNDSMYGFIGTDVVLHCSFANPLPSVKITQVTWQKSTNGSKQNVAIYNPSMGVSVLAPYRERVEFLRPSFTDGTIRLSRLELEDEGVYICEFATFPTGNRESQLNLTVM

B1: N41mab-vcMMAE (antibody, V domains shown)
VH: QVQLKQSGPGLVQPSQSLSITCTVSGFSLTNYGVHWVRQSPGKGLEWLGVIWSGGSTDYNAAFISRLSISKDTSKSQVFFKMNSLQADDTAIYYCARELIHAMDNWGQGTSVTVSS
VL: DIQMTQSPASLSVSVGETVTITCRASENIYSNLAWYQQKQGNSPQLLVFAATNLADGVPSRFSGSGSGTQYSLKINSLQSEDFGTYYCQHFWGTPTFGGGTKLEIK
modifications: monomethyl auristatin-E (MMAE) conjugated through the MC-Val-Cit-PAB linker; drug to antibody ratio 4.73; sites not stated
B2: N41mab antibody (antibody, V domains shown)
VH: B1 VH
VL: B1 VL
notes: Mouse monoclonal antibody from a hybridoma (mice immunized with nectin4 V-Fc); also called mab1; Mab1

Experiments:
[1] = target: T1, N-terminal Flag-tagged nectin4 …; experiment: cell-based or functional assay
[2] = target: T2, endogenous nectin-4 on SUM190 cells; experiment: cell-based or functional assay
[3] = target: T3, nectin1V-Fc (comprising only the IgV …); experiment: ELISA, plate coated with 5 ug/ml nectin1V-Fc
Protocol: A: Detection by ELISA. Ninety-six-well trays were coated with 5 ug/ml of nectin4V-Fc or nectin1V-Fc (comprising only the IgV domain) overnight at +4° C. as indicated. N41mab recognizes the nectin4V-Fc (bar 3) not the nectin1V-Fc (bar 1).
A sandwich enzyme-linked immunosorbent assay was used to control specificity of N41mab antibody and to perform competition assays between mabs. Ninety-six-well trays were coated with 5 μg/ml of nectin4V-Fc or nectin1V-Fc (comprising only the IgV domain) overnight at +4° C. After washes and saturation with PBS 1% BSA cells were incubated overnight with 0.625 μg/ml of N41mab. Peroxydase conjugated goat anti mouse antibody was incubated 2 h at 25° C. (Pierce). In the case of competition, binding of peroxidase conjugated N41mab was measured in the presence of vairable concentration of “cold” mab. One hundred ul of peroxidase substrate was added (One Step ABST, Pierce), and OD was read at 405 nm.
A sandwich enzyme-linked immunosorbent assay was used to control the specificity of the N41mab antibody. Ninety-six-well trays were coated with 5 μg/ml of nectin4V-Fc or nectin1V-Fc (comprising only the IgV domain) overnight at +4° C. After washes and saturation with PBS 1% BSA cells were incubated overnight with 0.625 μg/ml of mab1/N41mab. […] One hundred μ1 of peroxidase substrate was added (One Step ABST, Pierce), and OD was read at 405 nm.

Binder	IC50 (cell growth, alamarBlue) [1] [ng/mL]	IC50 (cell growth, alamarBlue) [2] [ng/mL]	binding result [3]
B1	2	4	
B2			no binding (tested: 0.625 µg/ml)
